Biological target: ovine ADAMTS13 (sheep (ovine))
Experiment: cell-based or functional assay

B1: monoclonal anti-ADAMTS13 antibody 17C7 (antibody, V domains shown)
VH: EVQLVESGGDLVKSGGSLKLSCAASGFIFSNYAMSWVRQTPEKRLEWGATITTGGFYTFYSDSVKGRFTISRDNAKNTLYLQMSSLRSEDTAMYYCARHRYDDYYALDYWGQGTSVTVSS
VL: ENVLTQSPAIMSTSPGEKVTMTCNVSSSVSYMRWFQQKSSTSPKLWIYDTSKLASGVPGRFSGSGSGHSYSLTISSMEADDVATYYCFQGNGYPLTFGAGTKLELK
modifications: Biotinylated when used as detector; the site is not stated and the letters cannot carry it.
  half maximal inhibitory concentration (IC50) of ADAMTS13 activity in ovine plasma, FRETS-VWF71 assay: 2.4 µg/mL

Source: US20200308303A1 (KATHOLIEKE UNIVERSITEIT LEUVEN, published 2020)
